From US20220098307A1 (WUHAN YZY BIOPHARMA, published 2022)
Substitutions are numbered along the chain they refer to. Names may count otherwise.

B1: CD38-M1-G2 (bispecific antibody, human IgG1, kappa)
chain: QVQLVESGGGVVQPGRSLRLSCAASGFTFSTYAMNWVRQAPGKGLEWVARIRSKYNNYATYYADSVKDRFTISRDDSKNTLYLQMNSLRAEDTAVYYCARHGNFGNSYVSWFAYWGQGTLVTVSSGGGGSGGGGSGGGGSQTVVTQEPSLTVSPGGTVTLTCRSSTGAVTTSNYANWVQQKPGQAPRGLIGGTNKRAPGVPARFSGSLLGGKAALTLSGVQPEDEAEYYCALWYSNLWVFGGGTKVEIKGRGRGSDKTHTCPPCPAPPVAGPSVFLFPPKPKDTLMISRTPEVTCVVVDVSHEDPEVQFNWYVDGVEVHNAKTKPREEQFNSTFRVVSVLTVVHQDWLNGKEYKCKVSNKGLPAPIEKTISKTKGQPREPQVCTLPPSRDELTKNQVSLSCAVKGFYPSDIAVEWESNGQPENNYKTTPPVLDSDGSFFLVSKLTVDKSRWQQGNVFSCSVMHEALHNHYTQKSLSLSPGK
heavy: EVQLLESGGGLVQPGGSLRLSCAVSGFTFNSFAMSWVRQAPGKGLEWVSAISGSGGGTYYADSVKGRFTISRDNSKNTLYLQMNSLRAEDTAVYFCAKDKILWFGEPVFDYWGQGTLVTVSSASTKGPSVFPLAPSSKSTSGGTAALGCLVKDYFPEPVTVSWNSGALTSGVHTFPAVLQSSGLYSLSSVVTVPSSSLGTQTYICNVNHKPSNTKVDKKVEPKSCDKTHTCPPCPAPPVAGPSVFLFPPKPKDTLMISRTPEVTCVVVDVSHEDPEVQFNWYVDGVEVHNAKTKPREEQFNSTFRVVSVLTVVHQDWLNGKEYKCKVSNKGLPAPIEKTISKTKGQPREPQVYTLPPCRDELTKNQVSLWCLVKGFYPSDIAVEWESNGQPENNYKTTPPVLDSDGSFFLYSKLTVDKSRWQQGNVFSCSVMHEALHNHYTQKSLSLSPGK
light: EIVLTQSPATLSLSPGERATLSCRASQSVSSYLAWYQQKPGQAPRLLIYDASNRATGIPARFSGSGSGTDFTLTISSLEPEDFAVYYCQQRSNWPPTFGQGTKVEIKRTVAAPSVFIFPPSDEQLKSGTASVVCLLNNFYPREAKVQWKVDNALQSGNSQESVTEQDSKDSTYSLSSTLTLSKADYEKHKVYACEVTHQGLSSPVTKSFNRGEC
notes: structure 1; CD38 x CD3; CH2 G2CH2
B2: CD38-M1-G2-1 (bispecific antibody)
chain: not shown
heavy: B1 heavy
light: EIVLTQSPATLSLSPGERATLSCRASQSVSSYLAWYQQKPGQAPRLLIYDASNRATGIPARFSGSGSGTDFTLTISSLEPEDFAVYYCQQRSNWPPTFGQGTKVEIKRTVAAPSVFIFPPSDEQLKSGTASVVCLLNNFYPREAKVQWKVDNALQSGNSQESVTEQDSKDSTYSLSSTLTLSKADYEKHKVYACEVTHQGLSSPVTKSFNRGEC
notes: structure 1; CD38 x CD3 (I2C); CH2 G2CH2
B3: CD38-M1-DG2 (bispecific antibody)
chain: not shown
heavy: B1 heavy with D269A
light: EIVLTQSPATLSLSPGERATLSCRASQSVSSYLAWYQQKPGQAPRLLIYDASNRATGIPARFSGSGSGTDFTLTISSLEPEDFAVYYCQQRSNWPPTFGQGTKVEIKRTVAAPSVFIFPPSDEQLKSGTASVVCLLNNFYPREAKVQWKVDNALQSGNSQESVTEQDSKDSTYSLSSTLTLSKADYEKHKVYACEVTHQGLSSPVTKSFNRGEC
notes: structure 1; CD38 x CD3 (I2C); CH2 DG2CH2
B4: CD38-M1-PG2 (bispecific antibody)
chain: not shown
heavy: B1 heavy with C234P
light: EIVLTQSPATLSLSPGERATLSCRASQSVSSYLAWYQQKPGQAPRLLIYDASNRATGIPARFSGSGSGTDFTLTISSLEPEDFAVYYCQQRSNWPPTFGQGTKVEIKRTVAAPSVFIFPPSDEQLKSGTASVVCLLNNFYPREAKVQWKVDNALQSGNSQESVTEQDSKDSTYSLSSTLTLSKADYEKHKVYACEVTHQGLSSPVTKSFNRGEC
notes: structure 1; CD38 x CD3 (I2C); CH2 PG2CH2
B5: CD38-M1-GG2 (bispecific antibody)
chain: not shown
heavy: B1 heavy with C234G
light: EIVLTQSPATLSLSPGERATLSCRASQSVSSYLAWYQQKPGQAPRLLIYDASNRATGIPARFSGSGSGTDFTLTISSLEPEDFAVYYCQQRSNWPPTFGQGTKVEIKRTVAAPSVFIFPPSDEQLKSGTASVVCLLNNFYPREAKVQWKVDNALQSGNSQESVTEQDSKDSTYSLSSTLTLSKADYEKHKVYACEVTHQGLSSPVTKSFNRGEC
notes: structure 1; CD38 x CD3 (I2C); CH2 GG2CH2
B6: CD38-M1-AG2 (bispecific antibody)
chain: not shown
heavy: B1 heavy with C234A
light: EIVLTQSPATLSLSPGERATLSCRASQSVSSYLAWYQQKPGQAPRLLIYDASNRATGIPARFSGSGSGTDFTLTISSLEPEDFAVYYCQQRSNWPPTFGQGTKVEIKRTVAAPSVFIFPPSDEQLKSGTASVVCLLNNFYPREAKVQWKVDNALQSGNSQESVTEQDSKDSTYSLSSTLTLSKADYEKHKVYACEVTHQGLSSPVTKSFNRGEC
notes: structure 1; CD38 x CD3 (I2C); CH2 AG2CH2
B7: CD38-M1-DG2D (bispecific antibody)
chain: not shown
heavy: B1 heavy with D269A, D274A
light: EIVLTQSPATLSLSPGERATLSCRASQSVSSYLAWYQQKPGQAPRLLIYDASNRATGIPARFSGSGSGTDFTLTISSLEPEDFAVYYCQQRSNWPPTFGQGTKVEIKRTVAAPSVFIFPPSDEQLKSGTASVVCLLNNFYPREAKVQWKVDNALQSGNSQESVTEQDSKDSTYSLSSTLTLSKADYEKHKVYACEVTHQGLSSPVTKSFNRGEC
notes: structure 1; CD38 x CD3 (I2C); CH2 DG2DCH2
B8: CD38-M1-SG2 (bispecific antibody, human IgG1, kappa)
chain: B1 chain with C264S
heavy: B1 heavy with C234S
light: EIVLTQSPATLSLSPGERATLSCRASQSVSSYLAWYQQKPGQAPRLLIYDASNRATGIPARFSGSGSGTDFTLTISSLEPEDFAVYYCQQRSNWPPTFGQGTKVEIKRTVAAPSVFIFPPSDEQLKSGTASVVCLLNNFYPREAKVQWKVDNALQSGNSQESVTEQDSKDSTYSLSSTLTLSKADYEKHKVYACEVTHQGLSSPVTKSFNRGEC
notes: structure 1; CD38 x CD3; CH2 SG2CH2
B9: CD38-M1-G2D (bispecific antibody)
chain: not shown
heavy: B1 heavy with D274A
light: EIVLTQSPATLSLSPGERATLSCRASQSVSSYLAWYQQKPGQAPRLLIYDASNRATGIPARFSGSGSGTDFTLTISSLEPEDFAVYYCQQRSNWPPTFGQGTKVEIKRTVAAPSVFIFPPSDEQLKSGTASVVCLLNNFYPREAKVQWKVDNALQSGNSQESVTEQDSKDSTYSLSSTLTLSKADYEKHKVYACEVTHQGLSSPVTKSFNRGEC
notes: structure 1; CD38 x CD3 (I2C); CH2 G2DCH2
B10: CD38-M1-SG2-3 (bispecific antibody)
chain: not shown
heavy: B1 heavy with C234S
light: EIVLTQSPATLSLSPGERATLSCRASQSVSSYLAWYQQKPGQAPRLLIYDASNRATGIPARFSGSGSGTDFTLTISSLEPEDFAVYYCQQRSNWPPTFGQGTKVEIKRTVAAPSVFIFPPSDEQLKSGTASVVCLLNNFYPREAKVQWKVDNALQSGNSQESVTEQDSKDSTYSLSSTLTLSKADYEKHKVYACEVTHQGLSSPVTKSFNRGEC
notes: structure 1; CD38 x CD3 (I2C); CH2 SG2CH2
B11: M1IC-FES (bispecific antibody)
chain: not shown
heavy: EVKLDETGGGLVQPGRPMKLSCVASGFTFSDYWMNWVRQSPEKGLEWVAQIRNKPYNYETYYSDSVKGRFTISRDDSKSSVYLQMNNLRVEDMGIYYCTGSYYGMDYWGQGTSVTVSSASTKGPSVFPLAPSSKSTSGGTAALGCLVKDYFPEPVTVSWNSGALTSGVHTFPAVLQSSGLYSLSSVVTVPSSSLGTQTYICNVNHKPSNTKVDKKVEPKSCDKTHTCPPCPAPEFEGGPSVFLFPPKPKDTLMISRTPEVTCVVVDVSHEDPEVKFNWYVDGVEVHNAKTKPREEQYNSTYRVVSVLTVLHQDWLNGKEYKCKVSNKALPASIEKTISKAKGQPREPQVYTLPPCRDELTKNQVSLWCLVKGFYPSDIAVEWESNGQPENNYKTTPPVLDSDGSFFLYSKLTVDKSRWQQGNVFSCSVMHEALHNHYTQKSLSLSPGK
light: DVVMTQTPLSLPVSLGDQASISCRSSQSLVHSNGNTYLRWYLQKPGQSPKVLIYKVSNRFSGVPDRFSGSGSGTDFTLKISRVEAEDLGVYFCSQSTHVPWTFGGGTKLEIKRTVAAPSVFIFPPSDEQLKSGTASVVCLLNNFYPREAKVQWKVDNALQSGNSQESVTEQDSKDSTYSLSSTLTLSKADYEKHKVYACEVTHQGLSSPVTKSFNRGEC
notes: structure 1 isotype control; CH2 FES
B12: M1IC-WT-1 (bispecific antibody, human IgG1, kappa)
chain: not shown
heavy: not shown
light: B11 light
notes: structure 1 isotype control; CH2 WT
B13: M1IC-AAG-1 (bispecific antibody, human IgG1, kappa, L234A L235A)
chain: QVQLVESGGGVVQPGRSLRLSCAASGFTFSTYAMNWVRQAPGKGLEWVARIRSKYNNYATYYADSVKDRFTISRDDSKNTLYLQMNSLRAEDTAVYYCARHGNFGNSYVSWFAYWGQGTLVTVSSGGGGSGGGGSGGGGSQTVVTQEPSLTVSPGGTVTLTCRSSTGAVTTSNYANWVQQKPGQAPRGLIGGTNKRAPGVPARFSGSLLGGKAALTLSGVQPEDEAEYYCALWYSNLWVFGGGTKVEIKGGGGSDKTHTCPPCPAPEAAGGPSVFLFPPKPKDTLMISRTPEVTCVVVDVSHEDPEVKFNWYVDGVEVHNAKTKPREEQYNSTYRVVSVLTVLHQDWLNGKEYKCKVSNKALGAPIEKTISKAKGQPREPQVCTLPPSRDELTKNQVSLSCAVKGFYPSDIAVEWESNGQPENNYKTTPPVLDSDGSFFLVSKLTVDKSRWQQGNVFSCSVMHEALHNHYTQKSLSLSPGK
heavy: not shown
light: B11 light
notes: structure 1 isotype control; CH2 AAG
B14: M1IC-NA (bispecific antibody)
chain: not shown
heavy: B11 heavy with F235L, E236L, N298A, S332P
light: B11 light
notes: structure 1 isotype control; CH2 N297A
B15: CD38-M1-FES (bispecific antibody, human IgG1, kappa)
chain: B13 chain with A268F, A269E, G363P, P365S
heavy: EVQLLESGGGLVQPGGSLRLSCAVSGFTFNSFAMSWVRQAPGKGLEWVSAISGSGGGTYYADSVKGRFTISRDNSKNTLYLQMNSLRAEDTAVYFCAKDKILWFGEPVFDYWGQGTLVTVSSASTKGPSVFPLAPSSKSTSGGTAALGCLVKDYFPEPVTVSWNSGALTSGVHTFPAVLQSSGLYSLSSVVTVPSSSLGTQTYICNVNHKPSNTKVDKKVEPKSCDKTHTCPPCPAPEFEGGPSVFLFPPKPKDTLMISRTPEVTCVVVDVSHEDPEVKFNWYVDGVEVHNAKTKPREEQYNSTYRVVSVLTVLHQDWLNGKEYKCKVSNKALPASIEKTISKAKGQPREPQVYTLPPCRDELTKNQVSLWCLVKGFYPSDIAVEWESNGQPENNYKTTPPVLDSDGSFFLYSKLTVDKSRWQQGNVFSCSVMHEALHNHYTQKSLSLSPGK
light: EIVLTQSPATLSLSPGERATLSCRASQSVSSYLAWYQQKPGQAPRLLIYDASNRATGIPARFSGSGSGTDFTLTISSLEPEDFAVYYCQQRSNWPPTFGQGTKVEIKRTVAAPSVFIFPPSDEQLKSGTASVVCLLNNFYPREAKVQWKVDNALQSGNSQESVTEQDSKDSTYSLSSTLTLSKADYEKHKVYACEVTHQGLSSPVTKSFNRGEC
notes: structure 1; CD38 x CD3; CH2 FES
B16: CD38-M1-FES-1 (bispecific antibody)
chain: not shown
heavy: B15 heavy
light: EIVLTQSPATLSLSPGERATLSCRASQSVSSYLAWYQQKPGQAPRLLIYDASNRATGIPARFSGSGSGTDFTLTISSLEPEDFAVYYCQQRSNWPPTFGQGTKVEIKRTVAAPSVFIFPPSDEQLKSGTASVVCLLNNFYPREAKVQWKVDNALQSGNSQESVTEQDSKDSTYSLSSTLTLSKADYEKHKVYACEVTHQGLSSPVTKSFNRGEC
notes: structure 1; CD38 x CD3 (I2C); CH2 FES

Each binder was assayed against T1, Monkey CD3 (monkey) (assay: flow cytometry, monkey T cells).
T1 construct: whole, on cells; also called CD3 of monkey CD3 positive T cells

Question: How did the EC50 turn out when B1 was run?
Answer: Its EC50 is 142 nM.

Question: B2 was tested. Which EC50 did it give?
Answer: The EC50 was 12.6 nM.

Question: Which EC50 does the source give for B3 here?
Answer: The EC50 was 11 nM.

Question: With B4 as the binder, how does the EC50 read?
Answer: Its EC50 is 11.5 nM.

Question: With B5 as the binder, how does the EC50 read?
Answer: The EC50 was 10.4 nM.

Question: For B6, which EC50 is on record?
Answer: The EC50 was 10.2 nM.

Question: Which EC50 does the source give for B7 here?
Answer: The EC50 was 7.05 nM.

Question: For B8, which EC50 is on record?
Answer: Its EC50 is 159 nM.

Question: For B9, which EC50 is on record?
Answer: Its EC50 is 10.1 nM.

Question: How did the EC50 turn out when B10 was run?
Answer: Its EC50 is 7.59 nM.

Question: B11 was tested. Which EC50 did it give?
Answer: The EC50 was 11.4 nM.

Question: For B12, which EC50 is on record?
Answer: Its EC50 is 174 nM.

Question: How did the EC50 turn out when B13 was run?
Answer: The EC50 was 205 nM.

Question: B14 was tested. Which EC50 did it give?
Answer: Its EC50 is 9.63 nM.

Question: Which EC50 does the source give for B15 here?
Answer: The EC50 was 291 nM.

Question: With B16 as the binder, how does the EC50 read?
Answer: The EC50 was 9.18 nM.

The binders below were run against T2, Human CD3ε (human, UniProt P07766 23-126) (assay: flow cytometry, human T cells).
T2 construct: CD3 on T cells isolated from human whole blood
Excerpt: 1) Cell preparation: T cells isolated from CD3-positive human whole blood were used for a CD3 end affinity detection of multifunctional antibody molecule; positive tumor cells of corresponding antigen were used for detecting affinity of tumor antigen; for example, CD38-positive MM. 1S cells (purchased from the Cell Resource Center of Shanghai Institutes for Biological Sciences, Chinese Academy of Sciences) or RPMI 8226 cells (purchased from the Cell Resource Center of Shanghai Institutes for Biological Sciences, Chinese Academy of Sciences) were used for CD38 antigen detection, and PD-L1 positive H358 cells (purchased from the Cell Resource Center of Shanghai Institutes for Biological Sciences, Chinese Academy of Sciences) were used for PD-L1 antigen detection, and so on. The cells were resuspended with 1% FBS-PBS, adjusted to a density of 4×10⁶/ml, and 50 μl of cells were taken from each well, and then plated at 2×10⁵ per well. Cell plating was operated on ice
2) Addition of the antibody: according to the experimental design, the antibody was diluted gradually, and dilution of antibody was operated on ice. For example, the initial concentration of antibody for dilution was 3000 nM, and the antibody was diluted by 3 times with 11 concentration gradients. The diluted antibody was added to a cell well at 50 μl per well, mixed well, and shaked and incubated at 4° C. 1100 rpm/min for 2 h; after washing, the cells were resuspend in 1% FBS-PBS, and a diluted secondary antibody PE anti-human IgG FC (Biolegend, 409304) was added with a final concentration of 8 ug/ml and a volume of 50 μl/well. At the same time, a well only added with cells and secondary antibody was set as a control, the components were mixed well, and incubated under shaking at 1100 rpm/min at 4° C. for 1 h;
5) Data analysis: the data was analyzed by a flow analysis software FlowJo 7.6 thereby obtaining an average fluorescence intensity of the specific antibody concentration, plotted by a Graphpad Prism 5 with the antibody concentration (nM) as an abscissa and the average fluorescence intensity as an ordinate; the EC50 value was calculated by the method of One site—Specific binding, and the EC50 value indicated the cell affinity of the antibody to the corresponding target antigen.

Question: How did the EC50 turn out when B12 was run?
Answer: Its EC50 is 153 nM.

Question: With B13 as the binder, how does the EC50 read?
Answer: Its EC50 is 152 nM.
